# Experimental data: the supplement of paper PMC10567573
# B1: VTI1B (parent)
# chain: ANETLAEMEEELRYAPLSFRNPMM
# Variants of: B1
# Assay: protein stability index of a GFP-peptide fusion (GPS, HEK-293T) (PSI 1-6); higher = more stable
# Details: c terminus: a fixed tail appended
# 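Note: lentivirally expressed fusions sorted by FACS into six bins by GFP to DsRed ratio, PSI derived from sequencing read proportions per bin multiplied by bin number.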
row,Variant,protein stability index
1,ANETLAEMEEELRYIPLSFRNPMM [A15I],2.06
2,ANETLAEMEEELRYKPLSFRNPMM [A15K],3.09
3,ANETLAEMEEELRYLPLSFRNPMM [A15L],2.03
4,ANETLAEMEEELRYMPLSFRNPMM [A15M],1.53
5,ANETLAEMEEELRYNPLSFRNPMM [A15N],2.64
6,ANETLAEMEEELRYQPLSFRNPMM [A15Q],1.67
7,ANETLAEMEEELRYRPLSFRNPMM [A15R],1.76
8,ANETLAEMEEELRYSPLSFRNPMM [A15S],1.61
9,ANETLAEMEEELRYTPLSFRNPMM [A15T],2.06
10,ANETLAEMEEELRYVPLSFRNPMM [A15V],3.98
11,ANETLAEMEEELRYWPLSFRNPMM [A15W],2.92
12,ANETLAEMEEELRYYPLSFRNPMM [A15Y],2.52
13,ANETLAEMEEELRYAALSFRNPMM [P16A],2.26
14,ANETLAEMEEELRYACLSFRNPMM [P16C],1.92
15,ANETLAEMEEELRYADLSFRNPMM [P16D],3.56
16,ANETLAEMEEELRYAELSFRNPMM [P16E],2.66
17,ANETLAEMEEELRYAFLSFRNPMM [P16F],2.17
18,ANETLAEMEEELRYAGLSFRNPMM [P16G],2
19,ANETLAEMEEELRYAHLSFRNPMM [P16H],2.64
20,ANETLAEMEEELRYAILSFRNPMM [P16I],2.43
21,ANETLAEMEEELRYAKLSFRNPMM [P16K],2.92
22,ANETLAEMEEELRYALLSFRNPMM [P16L],1.88
23,ANETLAEMEEELRYAMLSFRNPMM [P16M],1.77
24,ANETLAEMEEELRYANLSFRNPMM [P16N],3.15

row,Variant,protein stability index
1,ANETLAEMEEELRYAQLSFRNPMM [P16Q],2.29
2,ANETLAEMEEELRYARLSFRNPMM [P16R],2.71
3,ANETLAEMEEELRYASLSFRNPMM [P16S],2.92
4,ANETLAEMEEELRYATLSFRNPMM [P16T],2.77
5,ANETLAEMEEELRYAVLSFRNPMM [P16V],1.3
6,ANETLAEMEEELRYAWLSFRNPMM [P16W],1.89
7,ANETLAEMEEELRYAYLSFRNPMM [P16Y],2.36
8,ANETLAEMEEELRYAPASFRNPMM [L17A],3.66
9,ANETLAEMEEELRYAPCSFRNPMM [L17C],3.58
10,ANETLAEMEEELRYAPDSFRNPMM [L17D],4.33
11,ANETLAEMEEELRYAPESFRNPMM [L17E],4.46
12,ANETLAEMEEELRYAPFSFRNPMM [L17F],1.52
13,ANETLAEMEEELRYAPGSFRNPMM [L17G],3.49
14,ANETLAEMEEELRYAPHSFRNPMM [L17H],3.79
15,ANETLAEMEEELRYAPISFRNPMM [L17I],3.02
16,ANETLAEMEEELRYAPKSFRNPMM [L17K],3.69
17,ANETLAEMEEELRYAPMSFRNPMM [L17M],3.13
18,ANETLAEMEEELRYAPNSFRNPMM [L17N],4.16
19,ANETLAEMEEELRYAPPSFRNPMM [L17P],3.78
20,ANETLAEMEEELRYAPQSFRNPMM [L17Q],4.14
21,ANETLAEMEEELRYAPRSFRNPMM [L17R],2.93
22,ANETLAEMEEELRYAPSSFRNPMM [L17S],2.8
23,ANETLAEMEEELRYAPTSFRNPMM [L17T],4.06
24,ANETLAEMEEELRYAPVSFRNPMM [L17V],2.8

row,Variant,protein stability index
1,ANETLAEMEEELRYAPWSFRNPMM [L17W],2
2,ANETLAEMEEELRYAPYSFRNPMM [L17Y],3.41
3,ANETLAEMEEELRYAPLAFRNPMM [S18A],2.21
4,ANETLAEMEEELRYAPLCFRNPMM [S18C],2.24
5,ANETLAEMEEELRYAPLDFRNPMM [S18D],2.98
6,ANETLAEMEEELRYAPLEFRNPMM [S18E],3.79
7,ANETLAEMEEELRYAPLFFRNPMM [S18F],2.64
8,ANETLAEMEEELRYAPLGFRNPMM [S18G],3.19
9,ANETLAEMEEELRYAPLHFRNPMM [S18H],2.94
10,ANETLAEMEEELRYAPLIFRNPMM [S18I],2.83
11,ANETLAEMEEELRYAPLKFRNPMM [S18K],3.81
12,ANETLAEMEEELRYAPLLFRNPMM [S18L],3.19
13,ANETLAEMEEELRYAPLMFRNPMM [S18M],2.81
14,ANETLAEMEEELRYAPLNFRNPMM [S18N],2.23
15,ANETLAEMEEELRYAPLPFRNPMM [S18P],4.1
16,ANETLAEMEEELRYAPLQFRNPMM [S18Q],3.35
17,ANETLAEMEEELRYAPLRFRNPMM [S18R],3.8
18,ANETLAEMEEELRYAPLTFRNPMM [S18T],1.79
19,ANETLAEMEEELRYAPLVFRNPMM [S18V],3.14
20,ANETLAEMEEELRYAPLWFRNPMM [S18W],3.98
21,ANETLAEMEEELRYAPLYFRNPMM [S18Y],3.25
22,ANETLAEMEEELRYAPLSARNPMM [F19A],3.94
23,ANETLAEMEEELRYAPLSCRNPMM [F19C],4.43
24,ANETLAEMEEELRYAPLSDRNPMM [F19D],4.85

row,Variant,protein stability index
1,ANETLAEMEEELRYAPLSERNPMM [F19E],4.67
2,ANETLAEMEEELRYAPLSGRNPMM [F19G],4.5
3,ANETLAEMEEELRYAPLSHRNPMM [F19H],4.26
4,ANETLAEMEEELRYAPLSIRNPMM [F19I],3.73
5,ANETLAEMEEELRYAPLSKRNPMM [F19K],4.49
6,ANETLAEMEEELRYAPLSMRNPMM [F19M],4.23
7,ANETLAEMEEELRYAPLSNRNPMM [F19N],4.3
8,ANETLAEMEEELRYAPLSPRNPMM [F19P],4.87
9,ANETLAEMEEELRYAPLSQRNPMM [F19Q],3.96
10,ANETLAEMEEELRYAPLSRRNPMM [F19R],4.18
11,ANETLAEMEEELRYAPLSTRNPMM [F19T],4.44
12,ANETLAEMEEELRYAPLSVRNPMM [F19V],3.28
13,ANETLAEMEEELRYAPLSWRNPMM [F19W],3.24
14,ANETLAEMEEELRYAPLSYRNPMM [F19Y],2.35
15,ANETLAEMEEELRYAPLSFANPMM [R20A],2.25
16,ANETLAEMEEELRYAPLSFCNPMM [R20C],2.35
17,ANETLAEMEEELRYAPLSFDNPMM [R20D],2.48
18,ANETLAEMEEELRYAPLSFENPMM [R20E],2.58
19,ANETLAEMEEELRYAPLSFFNPMM [R20F],2.63
20,ANETLAEMEEELRYAPLSFGNPMM [R20G],2.65
21,ANETLAEMEEELRYAPLSFHNPMM [R20H],1.7
22,ANETLAEMEEELRYAPLSFINPMM [R20I],1.9
